# ± gives the uncertainty stated by the source.
# Experiment: self-splicing fitness, log relative to wild type (ln ratio); higher = more splicing; Tetrahymena group I intron in knt gene, E. coli kanamycin selection, DiMSum; sequences stand for … in CUCUCU…GGAGGGAAAAGUUAUCAGGCAUGCACCUGGUAGCUAGUCUUUAAACCAAUAGAUUGCAUCGGUUUAAAAGGCAAGACCGUCAAAUUGCGGGAAAGGGGUCAACAGCCGUUCAGUACCAAGUCUCAGGGGAAACUUUGAGAUGGCCUUGCAAAGGGUAUGGUAAUAAGCUGACGGACAUGGUCCUAACCACGCAGCCAAGUCCUAAGUCAACAGAUCUUCUGUUGAUAUGGAUGCAGUUCACAGACUAAAUGUCGGUCGGGGAAGAUGUAUUCUUCUCAUAAGAUAUAGUCGGACCUCUCCUUAAUGGGAGCUAGCGGAUGAAGUGAUGCAACACUGGAGCCGCUGGGAACUAAUUUGUAUGCGAAAGUAUAUUGAUUAGUUUUGGAGUACUCGUGGUCG
# How it was run: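 The eight P1ex-region nucleotides of an intron in the knt kanamycin-resistance gene on pET-22b(+) were all randomised and the library put into E. coli BL21(DE3). Six replicate transformations were grown overnight at 37°C or 30°C on LB agar with or without 25 μg/mL kanamycin, together with 100 μg/mL carbenicillin, 50 μM IPTG and 0.2% rhamnose. Colonies were pooled and amplicon-sequenced on an Illumina HiSeq 2500. Fitness from DiMSum is the error-weighted combination of wild-type-normalised replicate fold changes, kanamycin over none.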
Sequence,self-splicing fitness (ln) (30 °C),self-splicing fitness (ln) (37 °C)
AUACAGCAAUAUUACGUUUU,-2.19 ± 0.12,-2.09 ± 0.15
AAUGAGCAAUAUUACGAAGC,-3.08 ± 0.35,-1.89 ± 0.43
ACCUAGCAAUAUUACGAUAA,-2.61 ± 0.27,-2.1 ± 0.23
GGCAAGCAAUAUUACGCGUC,-3.66 ± 0.34,-2.74 ± 0.36
GGUCAGCAAUAUUACGAGGG,–,-2.35 ± 0.25
UAAAAGCAAUAUUACGCCAC,–,-2.02 ± 0.36
CCAGAGCAAUAUUACGUUGC,-4.54 ± 0.37,-2.11 ± 0.18
UCAUAGCAAUAUUACGGCCU,-3.03 ± 0.17,-2.48 ± 0.31
CUUGAGCAAUAUUACGCAUU,–,-2.02 ± 0.35
AUCUAGCAAUAUUACGGGGG,-1.65 ± 0.11,-1.9 ± 0.15
GAAUAGCAAUAUUACGAGCG,-1.62 ± 0.069,-0.354 ± 0.076
GUAGAGCAAUAUUACGUUCC,-1.77 ± 0.14,-0.881 ± 0.18
GCAUAGCAAUAUUACGUCGG,-2.24 ± 0.14,-1.47 ± 0.13
AGUGAGCAAUAUUACGGUUU,-2.09 ± 0.14,-2.28 ± 0.33
ACAAAGCAAUAUUACGCAGA,-2.12 ± 0.14,-1.06 ± 0.093
AAGAAGCAAUAUUACGGGUU,-1.57 ± 0.15,-1.41 ± 0.14
AAGUAGCAAUAUUACGAGAA,-2.44 ± 0.22,-2.05 ± 0.44
AGUCAGCAAUAUUACGACCA,-0.2 ± 0.12,0.345 ± 0.14
CUAGAGCAAUAUUACGUUCG,-1.1 ± 0.047,-0.578 ± 0.076
UCAUAGCAAUAUUACGCGCC,-3.62 ± 0.44,-1.88 ± 0.33
AGUAAGCAAUAUUACGCGCG,-1.05 ± 0.21,-0.403 ± 0.21
GUUGAGCAAUAUUACGUGAC,-2.31 ± 0.24,-2.48 ± 0.31
CUCUAGCAAUAUUACGCCAU,–,-3.56 ± 0.33
UUUGAGCAAUAUUACGUAAA,-1.16 ± 0.15,-1.45 ± 0.2
CCACAGCAAUAUUACGCCUC,-2.9 ± 0.26,-2.58 ± 0.35
CGUCAGCAAUAUUACGACAU,-0.647 ± 0.012,-0.0443 ± 0.032

Sequence,self-splicing fitness (ln) (30 °C),self-splicing fitness (ln) (37 °C)
CGCAAGCAAUAUUACGAAAG,-0.888 ± 0.071,-1.12 ± 0.093
UCGGAGCAAUAUUACGCAUG,-3.6 ± 0.22,-1.38 ± 0.17
CGACAGCAAUAUUACGUUAG,-2.51 ± 0.097,-0.772 ± 0.095
CCUGAGCAAUAUUACGCCAU,-3.2 ± 0.4,-2.13 ± 0.33
UAUGAGCAAUAUUACGCAUA,–,-2.21 ± 0.42
CAGGAGCAAUAUUACGUGAC,-2.45 ± 0.19,–
CAACAGCAAUAUUACGCCUA,-2.08 ± 0.12,-1.31 ± 0.11
UGCGAGCAAUAUUACGUGUU,-3.58 ± 0.43,-2.47 ± 0.32
GACUAGCAAUAUUACGGAUC,-0.87 ± 0.096,-0.304 ± 0.14
GAAUAGCAAUAUUACGGGCG,-1.16 ± 0.078,-0.509 ± 0.1
ACGAAGCAAUAUUACGGGCU,-0.943 ± 0.1,-1.67 ± 0.16
UGGUAGCAAUAUUACGGUAC,-3.95 ± 0.4,-1.43 ± 0.27
AGACAGCAAUAUUACGGCCC,-0.119 ± 0.2,-0.253 ± 0.25
GAUAAGCAAUAUUACGAGCU,-0.688 ± 0.11,-1.13 ± 0.12
CUAGAGCAAUAUUACGCGUU,-4.14 ± 0.24,-2.46 ± 0.27
ACGUAGCAAUAUUACGUACC,-1.4 ± 0.13,-0.541 ± 0.19
AAACAGCAAUAUUACGAUCC,-1.8 ± 0.088,-0.41 ± 0.11
UGUCAGCAAUAUUACGAGAG,-3.21 ± 0.23,-2.58 ± 0.2
CUUAAGCAAUAUUACGGCAC,-3.43 ± 0.43,–
GACCAGCAAUAUUACGAUAA,-1.53 ± 0.094,-1.13 ± 0.1
GUCGAGCAAUAUUACGGUGA,-2.64 ± 0.15,-1.91 ± 0.2
CUAGAGCAAUAUUACGGAGC,–,-3.62 ± 0.34
AGCAAGCAAUAUUACGAUCG,0.481 ± 0.09,-0.163 ± 0.12
UGCAAGCAAUAUUACGUUAA,-2.27 ± 0.13,-0.494 ± 0.1
UUGUAGCAAUAUUACGAUUC,-3.76 ± 0.34,-3.2 ± 0.3
